# From patent US12630599B2, “CA2 compositions and methods for tunable regulation” (Obsidian Therapeutics, Inc., priority 2019, dated 2026)
# Tested on: Nalm-6 cells
# Experiment: 48 hour cytotoxicity assay, T cells co-cultured with Nalm-6 cells (NucRed), Incucyte (Example 4, Table 14)
# Assay type: cell-based
# Conditions: for Average Total Nalm6-NucRed Area after 48 hour at E:T ratio of 3:1: E:T ratio 3:1, 48 hour; for Average Total Nalm6-NucRed Area after 48 hour at E:T ratio of 10:1: E:T ratio 10:1, 48 hour
# From the text: The following constructs were transduced into T cells: OT-001356 (nucleic acid sequence SEQ ID NO: 6081 encodes two amino acid sequences, first is SEQ ID NO: 6082 (nucleic acid sequence SEQ ID NO: 6083) second is SEQ ID NO: 6084 (nucleic acid sequence SEQ ID NO: 6085)), OT-001356 (amino acid sequence provided as SEQ ID NO: 6092 and nucleic acid is SEQ ID NO: 6093) OT-001407 (amino acid sequence provided as SEQ ID NO: 6086 and nucleic acid is SEQ ID NO: 6087), OT-001895, OT-002011, OT-002111, OT-0020%, OT-02171. The cells were expanded for 10 days and utilized for cytotoxicity assays. Percentage of CAR positive cells obtained with each of the constructs was as follows: OT-001356: 45.3%; OT-001407, OT-001895: 29.4%, OT-002011: 24.3%, OT-002111: 19.6%, OT-0020%: 6.08%, OT-002171: 13.3%. For cytotoxicity assays, T cells were thawed and co-cultured with Nalm-6 cells (stably expressing NucRed) at different T cells to Nalm-6 cell culture ratios. Target cell viability was determined by measuring cellular fluorescence over time using an Incucyte assay and the results are shown in Table 14.
Molecule,Average Total Nalm6-NucRed Area after 48 hour at E:T ratio of 3:1,Average Total Nalm6-NucRed Area after 48 hour at E:T ratio of 10:1
OT-002011: construct transduced into T cells for the study of the effect of mbIL12 on CAR activity (protein) IWELKKDVYVVELDWYPDAPGEMVVLTCDTPEEDGITWTLDQSSEVLGSGKTLTIQVKEFGDAGQYTCHKGGEVLSHSLLLLHKKEDGIWSTDILKDQKEPKNKTFLRCEAKNYSGRFTCWWLTTISTDLTFSVKSSRGSSDPQGVTCGAATLSAERVRGDNKEYEYSVECQEDSACPAAEESLPIEVMVDAVHKLKYENYTSSFFIRDIIKPDPPKNLQLKPLKNSRQVEVSWEYPDTWSTPHSYFSLTFCVQVQGKSKREKKDRVFTDKTSATVICRKNASISVRAQDRYYSSSWSEWASVPCSGGGGSGGGGSGGGGSRNLPVATPDPGMFPCLHHSQNLLRAVSNMLQKARQTLEFYPCTSEEIDHEDITKDKTSTVEACLPLELTKNESCLNSRETSFITNGSCLASRKTSFMMALCLSSIYEDLKMYQVEFKTMNAKLLMDPKRQIFLDQNMLAVIDELMQALNFNSETVPQKSSLEEPDFYKTKIKLCILLHAFRIRAVTIDRVMSYLNASGSGSGSGSGSGSGSGSGSGSGSGSGSGSGSLDFACDLLPSWAITLISVNGIFVICCLTYCFAPRCRERRGS,"59,465","44,301"
OT-002111: construct transduced into T cells for the study of the effect of mbIL12 on CAR activity (protein) IWELKKDVYVVELDWYPDAPGEMVVLTCDTPEEDGITWTLDQSSEVLGSGKTLTIQVKEFGDAGQYTCHKGGEVLSHSLLLLHKKEDGIWSTDILKDQKEPKNKTFLRCEAKNYSGRFTCWWLTTISTDLTFSVKSSRGSSDPQGVTCGAATLSAERVRGDNKEYEYSVECQEDSACPAAEESLPIEVMVDAVHKLKYENYTSSFFIRDIIKPDPPKNLQLKPLKNSRQVEVSWEYPDTWSTPHSYFSLTFCVQVQGKSKREKKDRVFTDKTSATVICRKNASISVRAQDRYYSSSWSEWASVPCSGGGGSGGGGSGGGGSRNLPVATPDPGMFPCLHHSQNLLRAVSNMLQKARQTLEFYPCTSEEIDHEDITKDKTSTVEACLPLELTKNESCLNSRETSFITNGSCLASRKTSFMMALCLSSIYEDLKMYQVEFKTMNAKLLMDPKRQIFLDQNMLAVIDELMQALNFNSETVPQKSSLEEPDFYKTKIKLCILLHAFRIRAVTIDRVMSYLNASGSGSGSGSADFPTPSISDFEIPTSNIRRIICSTSGGFPEPHLSWLENGEELNAINTTVSQDPETELYAVSSKLDFNMTTNHSFMCLIKYGHLRVNQTFNWNTTKQEHFPDNGS,"42,520","42,899"
